Measurements published in patent publication US20260125457A1 (Janssen / Centocor, published 2026).

Columns and labels:
[1] = target: T1, CALRdel52 (mutant calreticulin, 52 base pair deletion, Type 1) expressed with MPL on engineered cancer cells (UniProt P27797 18-417); assay: cell-based or functional assay
T1 sequence (looked up): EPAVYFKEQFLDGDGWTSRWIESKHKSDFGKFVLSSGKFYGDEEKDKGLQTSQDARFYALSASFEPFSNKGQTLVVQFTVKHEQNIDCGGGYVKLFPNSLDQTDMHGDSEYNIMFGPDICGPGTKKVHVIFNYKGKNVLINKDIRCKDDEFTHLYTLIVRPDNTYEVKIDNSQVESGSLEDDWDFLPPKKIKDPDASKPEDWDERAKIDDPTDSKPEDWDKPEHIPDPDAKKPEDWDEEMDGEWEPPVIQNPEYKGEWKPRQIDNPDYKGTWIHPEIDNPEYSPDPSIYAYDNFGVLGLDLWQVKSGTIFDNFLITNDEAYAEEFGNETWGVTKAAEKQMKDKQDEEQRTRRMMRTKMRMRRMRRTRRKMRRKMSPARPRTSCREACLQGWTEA

[2] = target: T2, CALRins5 (mutant calreticulin, 5 base pair insertion, Type 2) expressed with MPL on engineered cancer cells (UniProt P27797 18-417); assay: cell-based or functional assay
T2 sequence (looked up): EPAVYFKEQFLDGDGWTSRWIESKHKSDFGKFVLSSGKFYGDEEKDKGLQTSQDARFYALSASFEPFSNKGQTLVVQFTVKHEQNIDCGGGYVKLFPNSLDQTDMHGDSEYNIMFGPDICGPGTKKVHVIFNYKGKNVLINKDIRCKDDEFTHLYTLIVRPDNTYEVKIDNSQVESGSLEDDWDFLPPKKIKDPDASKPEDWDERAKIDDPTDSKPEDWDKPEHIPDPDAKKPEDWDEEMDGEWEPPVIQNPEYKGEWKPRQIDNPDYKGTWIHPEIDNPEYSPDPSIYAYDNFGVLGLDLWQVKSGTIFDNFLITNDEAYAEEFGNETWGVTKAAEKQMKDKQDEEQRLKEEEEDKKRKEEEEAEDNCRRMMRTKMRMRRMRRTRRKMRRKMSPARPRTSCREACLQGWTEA

[3] = target: T3, Flag/6xhis-CALRdel52 (CALRW12.007) (human, UniProt P27797 18-417); assay: SPR, forced degradation: Metal Ox
T3 construct: also called human CALRdel52
T3 sequence (looked up): T1 sequence (looked up)

[4] = target: T4, Avi/his-CalR-Ins5 (CALRW28.004) (human, UniProt P27797 18-417, limits assumed); assay: SPR, forced degradation: Metal Ox
T4 construct: also called human CALRins5
T4 sequence (looked up): T2 sequence (looked up)

[5] = target: T5, CD3EG-HSA-6xHis (CD3W220.002) (human, UniProt P07766 22-118; P09693 23-103); assay: SPR, forced degradation: Metal Ox
T5 construct: also called human CD3; not shown: human serum albumin (HSA); 6xHis tag

[6] = target: T2, CALRins5 (mutant calreticulin, 5 base …); assay: flow cytometry on ELF-153 MPL CALRins5 cells, 1 h at 37 C, AF647 secondary antibody, Geometric Mean
Procedure: FIGS. 21A-21F depict binding of different CALRmutxCD3 bispecific antibodies to CALRmut-negative or CALRmut-positive cells. Flow cytometry was used to evaluate CALRmutxCD3 binding to CALRmut-negative and CALRmut-positive cancer cells in vitro. CALRmutxCD3 antibodies were tested on a panel of cell lines, engineered to express MPL and CALRmut, after 1 hour 37° C. incubation, with subsequent incubation with secondary AF647-labeled antibody. Geometric mean fluorescence intensity of AF647 was measured to determine antibody binding.

T5 sequence (P07766 other isoform, or with tags, fused parts or gaps): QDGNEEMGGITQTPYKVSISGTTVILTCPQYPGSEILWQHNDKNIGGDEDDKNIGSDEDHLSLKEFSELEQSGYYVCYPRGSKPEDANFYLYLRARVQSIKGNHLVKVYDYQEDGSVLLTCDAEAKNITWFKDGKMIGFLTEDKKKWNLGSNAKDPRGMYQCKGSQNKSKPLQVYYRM

B1: C3CRB73 CALRmut x CD3 bispecific antibody (bispecific antibody, human IgG1, kappa, L234A L235A)
heavy: EVQLLESGGGLVQPGGSLRLSCAVSGIDLSNNAISWVRQAPGKGLEYVGVIGNTGDTYYADSAKGRFTISRDSSKTTLYLQMNSLRAEDTAVYFCVRGPPSYSSSVKNIWGQGTLVTVSSASTKGPSVFPLAPSSKSTSGGTAALGCLVKDYFPEPVTVSWNSGALTSGVHTFPAVLQSSGLYSLSSVVTVPSSSLGTQTYICNVNHKPSNTKVDKKVEPKSCDKTHTCPPCPAPEAAGGPSVFLFPPKPKDTLMISRTPEVTCVVVSVSHEDPEVKFNWYVDGVEVHNAKTKPREEQYNSTYRVVSVLTVLHQDWLNGKEYKCKVSNKALPAPIEKTISKAKGQPREPQVYTLPPSREEMTKNQVSLSCAVKGFYPSDIAVEWESNGQPENNYKTTPPVLDSDGSFFLVSKLTVDKSRWQQGNVFSCSVMHEALHNRFTQKSLSLSPGK
light: DIQMTQSPSSVSASVGDRVTITCQSSQSVYNNNWLSWLQQKPGKAPKRLIYDASKLESGVPSRFSGSGSGTDFTLTISSVQPEDAATYYCAGGFTGNVYTFGGGTKVEIKRTVAAPSVFIFPPSDEQLKSGTASVVCLLNNFYPREAKVQWKVDNALQSGNSQESVTEQDSKDSTYSLSSTLTLSKADYEKHKVYACEVTHQGLSSPVTKSFNRGEC
scFv: DIQMTQSPSSLSASVGDRVTITCRARQSIGTAIHWYQQKPGCAPKLLIKYASESISGVPSRFSGSGSGTDFTLTISSLQPEDFATYYCQQSGSWPYTFGQGTKLEIKGGGSGGSGGCPPCGGSGGEVQLVESGGGLVKPGGSLRLSCAASGFTFSRYNMNWVRQAPGKGLEWVSSISTSSNYIYYADSVKGRFTFSRDNAKNSLDLQMSGLRAEDTAIYYCTRGWGPFDYWGCGTLVTVSSEPKSSDKTHTCPPCPAPEAAGGPSVFLFPPKPKDTLMISRTPEVTCVVVSVSHEDPEVKFNWYVDGVEVHNAKTKPREEQYNSTYRVVSVLTVLHQDWLNGKEYKCKVSNKALPAPIEKTISKAKGQPREPQVYTLPPSREEMTKNQVSLWCLVKGFYPSDIAVEWESNGQPENNYKTTPPVLDSDGSFFLYSKLTVDKSRWQQGNVFSCSVMHEALHNHYTQKSLSLSPGK
notes: IgG1-AAS; also called JNJ-88549968; CALRB421 Fab x CD3 spFv
- cytotoxicity EC50 (nM), whole blood of CALRmut MPN patients, ELF-153 MPL CALRdel52 [1]: 0.66 nM
- cytotoxicity EC50 (nM), whole blood of healthy donors, ELF-153 MPL CALRdel52 [1]: 0.51 nM
- cytotoxicity EC50 (nM), whole blood of CALRmut MPN patients, ELF-153 MPL CALRins5 [2]: 0.64 nM
- cytotoxicity EC50 (nM), whole blood of healthy donors, ELF-153 MPL CALRins5 [2]: 0.32 nM
- % Active [3]: 97%
- Kd [3]: 0.063 nM
- % Active [4]: 94%
- Kd [4]: 0.0356 nM
- % Active [5]: 91%
- Kd [5]: 0.272 nM
- EC50 (read off the curve) [6]: ~2 nM
